Measurements: patent publication US20170334973A1

Tests used:
[1] = biological target: BDBV GP (Bundibugyo virus (BDBV)); test: ELISA, purified mAb
[2] = biological target: BDBV GP (Bundibugyo virus (BDBV)); test: GP ELISA, purified mAb

FVM09 (antibody), sequence (VH): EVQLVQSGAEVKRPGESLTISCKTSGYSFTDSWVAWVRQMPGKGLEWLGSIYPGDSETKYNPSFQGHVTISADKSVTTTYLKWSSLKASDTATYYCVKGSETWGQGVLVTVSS
FVM09 (antibody), sequence (V domain): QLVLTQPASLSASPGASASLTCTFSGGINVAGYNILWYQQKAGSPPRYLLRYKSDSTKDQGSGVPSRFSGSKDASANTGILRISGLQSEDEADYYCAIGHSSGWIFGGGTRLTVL

Substance: FVM09 (antibody)
- EC50 [1]: < 0.015 µg/mL
- EC50 [2]: 0.02 µg/mL
